Experimental data: patent US8598081B2, “Specific delivery of agrochemicals” (priority 2010, dated 2013)

T1: potato lectin (Solanum tuberosum, UniProt Q9S8M0)
T1 construct: purchased Sigma
T1 sequence (Q9S8M0 whole entry, looked up): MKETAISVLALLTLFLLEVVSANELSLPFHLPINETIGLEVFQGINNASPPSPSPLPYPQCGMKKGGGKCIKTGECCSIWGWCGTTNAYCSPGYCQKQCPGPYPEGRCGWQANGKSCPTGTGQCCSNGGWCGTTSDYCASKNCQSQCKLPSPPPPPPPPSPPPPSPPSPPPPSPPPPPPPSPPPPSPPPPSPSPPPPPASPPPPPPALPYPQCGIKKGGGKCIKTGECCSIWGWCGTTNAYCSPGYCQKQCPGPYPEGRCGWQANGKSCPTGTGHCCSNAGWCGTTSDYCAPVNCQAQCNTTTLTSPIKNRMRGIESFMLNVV

B1: VHH 3E6: VHH binding gum arabic, potato lectin and leaf surface; SEQ ID NO:7 by order of the list (protein, listed as Lama glama)
VHH: QVQLQESGGGLVQPGGTLSLSCAASGFNVRWYGMGWFRQAPGKEREGVACISALQETTAYADSVKGRFTLSRDNPKNTLSLQMNNLQPEDTGVYYCATTDCDDSSRMTYTSYLGQGTQVTVSS
modifications: 3E6
B2: Microcapsules containing uvitex OB VHH 3E6: polyurea microcapsules containing the fluorescent tracer Uvitex OB, coupled with (monovalent) VHH 3E6 (conjugate)
VHH: QVQLQESGGGLVQPGGTLSLSCAASGFNVRWYGMGWFRQAPGKEREGVACISALQETTAYADSVKGRFTLSRDNPKNTLSLQMNNLQPEDTGVYYCATTDCDDSSRMTYTSYLGQGTQVTVSS
modifications: left off: small tags and cut ends
notes: polyurea microcapsules containing the fluorescent tracer Uvitex OB, coupled with (monovalent) VHH 3E6

Assays:
potato lectin = molecular target: T1, potato lectin; assay: ELISA-like assay of VHH-coupled microcapsules, potato lectin-coated wells; assay type: binding; design: Area of bound microcapsules: unit not given beside the values; details: for Area of bound microcapsules: uvitex OB microcapsules
Experimental: Polyurea microcapsules were produced by interfacial polymerization. With the objective to generate functionalized polyurea microcapsules, VHH were coupled to microcapsules containing either the insecticide lambda cyhalothrin or the fluorescent tracer molecule Uvitex OB and a shell with incorporated lysine to surface-expose carboxylic acid residues. Lambda cyhalothrin was dissolved in benzyl benzoate in concentrations between 30% and 66% before encapsulation. Alternatively, a core of 1.5% Uvitex in benzyl benzoate was used for easy fluorescent visualization of microcapsules. Toluene diisocyanate (TDI) and polymethylenepolyphenylene isocyanate (PMPPI) were dissolved in the oil phase in different ratios and concentrations in the oil phase to produce desired shell characteristics. Stirring speed for the emulsion was varied to control droplet size and consequently microcapsule diameter. Microcapsules with approximate diameters of 5 μm, 10 μm, or 50 μm were successfully produced. Bifunctional lysine and trifunctional diethylene triamine (DETA) were used in different ratios and/or added sequentially during encapsulation to on the one hand maximize amounts of carboxylic acids on the microcapsules' surface and on the other hand obtain sufficient strength of capsule shells. Microcapsules were washed with water after production and stored as microcapsule suspensions in water. The microcapsules were washed with 100 mM MES, 500 mM NaCl, pH 6.0 immediately before coupling of VHH using a vacuum-tight filter flask and P 1.6 filter funnel (Duran). Alternatively, glass filter holders with 0.45 μm disposable membrane filters (Millipore) or 0.45 μm 96-well deep-well filtration plates (Millipore) were used. Couplings of VHH to microcapsules were performed using carbodiimide-mediated couplings using a one-step procedure, a two-step procedure without N-hydroxysuccinimide (NHS), or a two-step procedure with NHS. The major difference between one-step coupling and two-step coupling procedures is the occurrence of cross-linking of VHH in one-step coupling procedures. The protocols for the three procedures are largely similar and differ as follows. For one-step couplings VHH were added to washed microcapsules and 1-Ethyl-3-[3-dimethylaminopropyl]carbodiimide Hydrochloride (EDC) (Pierce) was added and coupling reaction was allowed for 2 hours at room temperature. For two-step couplings washed microcapsules were first activated with EDC in the presence or absence of NHS. Excess unreacted EDC (and NHS) were removed by quick sequential washes with ice-cold buffers and VHH were added and allowed to react with activated carboxylic acids on microcapsule shells. For ø 10 μm microcapsules 2-20 μg VHH were coupled per mg microcapsules. For microcapsules with other diameters amounts were scaled accordingly. After coupling of VHH the microcapsules were washed with PBS and stored in PBS. Success of coupling of VHH was investigated using a combination of analyzing coupling efficiency by SDS-PAGE and analyzing bound hexahistidine-tagged VHH by microscopy or a SP5 confocal microscope system (Leica) using anti-histidine antibodies directly conjugated with Alexa-488 fluorescent dye. […] VHH-coupled microcapsules were labeled with anti-histidine antibodies for 1 hour at room temperature. Unbound anti-histidine antibodies were removed by washing five times with PBS using 0.45 μm 96-well deep-well filtration plates (Millipore). […]

potato leaf discs = assay: Leaf disc binding assay with VHH-coupled microcapsules, potato; design: species or system potato (variety Desiree)
Experimental: A leaf disc binding assay was used to evaluate the interaction of VHH-coupled microcapsules with potato, grass and azalea leaves. ø 8 mm leaf discs were sampled from the leaves of potato pot plants (variety Desiree), from the leaves of greenhouse-grown Lollium perenne and from the leaves of azalea pot plants. Leaf discs were washed three times with PBS. Microcapsules containing lambda cyhalothrin or Uvitex were diluted to appropriate densities in 1% skimmed milk in PBS with 0.05%-TWEEN®-20. Microcapsules were added to the leaf discs and settling of microcapsules and binding of targeting agents allowed for 1 hour. Unbound microcapsules were removed by washing three to five times with PBS with 0.05%-TWEEN®-20.
For lambda cyhalothrin microcapsules, a residue analysis was performed to measure lambda cyhalothrin amounts on potato leaf discs. Washed leaf discs with bound microcapsules were transferred to glass vials and microcapsules were dissolved in acetone. Samples were diluted by addition of hexane containing 0.05% triphenylphosphate as internal standard. The amount of lambda cyhalothrin was determined by GC/MS-MS analysis in comparison with calibration solutions. Controls for lambda cyhalothrin microcapsules included blank microcapsules to which no VHH were coupled and microcapsules to which unrelated VHH were coupled.
Leaf discs with Uvitex microcapsules were analyzed for bound microcapsules on a macrozoom microscope system (Nikon). Microcapsules were counted using Volocity image analysis software (Perkin Elmer). A DAPI filter was used to visualize Uvitex microcapsules. Controls for Uvitex microcapsules included blank microcapsules to which no VHH were coupled and microcapsules to which unrelated VHH were coupled.

[1] = potato leaf discs, Uvitex microcapsules, FIG. 4

| Molecule | binding and retaining microcapsules to antigen-coated surface when VHH is coupled to a microcapsule (potato lectin; microcapsule binding assays, resists washing shear forces) | binding and retaining microcapsules to leaf surfaces (potato leaf discs; VHH coupled to Uvitex microcapsules, leaf disc binding assay) | Area of bound microcapsules (potato lectin; no coating (first series, with potato lectin rows), surface coverage 100%) | Area of bound microcapsules (potato lectin; potato lectin, surface coverage 4%) | Area of bound microcapsules (potato lectin; potato lectin, surface coverage 20%) | Area of bound microcapsules (potato lectin; potato lectin, surface coverage 100%) | more microcapsules bound to leaf surfaces compared to blank microcapsules (potato leaf discs; [1]) | more microcapsules bound to leaf surfaces compared to microcapsules coupled with unrelated VHH (potato leaf discs; [1]) |
| --- | --- | --- | --- | --- | --- | --- | --- | --- |
| B1 | capable of binding specifically to antigen-coated surfaces | capable of binding and retaining microcapsules specifically to leaf surfaces | – | – | – | – | – | – |
| B2 | – | – | 86.574 | 144.955 | 510.242 | 504.839 | nine-fold | six-fold |
